Experimental data published in article PMC8564274 (Signal Transduction and Targeted Therapy, 2021).

Biological target: SARS-CoV-2 receptor-binding domain (RBD) (SARS-CoV-2, UniProt P0DTC2)
Assay: BLI
Conditions: both partners purified

B1: CB6 (antibody, V domains shown)
VH: EVQLVESGGGLVQPGGSLRLSCAASGFTVSSNYMSWVRQAPGKGLEWVSVIYSGGSTFYADSVKGRFTISRDNSMNTLFLQMNSLRAEDTAVYYCARVLPMYGDYLDYWGQGTLVTVSS
VL: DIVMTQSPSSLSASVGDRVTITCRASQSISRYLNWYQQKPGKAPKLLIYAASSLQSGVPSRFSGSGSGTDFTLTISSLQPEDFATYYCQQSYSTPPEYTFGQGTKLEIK
Question: Does B1 bind?
Answer: binds
